Reference: article PMC12460815
“And” between values parts separate entries of the source, which are not always exact repeats. Identical values can stand only once.

Assays:
[1] = target: recombinant wild-type FGF2 (UniProt P09038); assay: gel electrophoresis under non-denaturing conditions; recombinant FGF2 under non-denaturing conditions, compared with denaturation at 95 °C
[2] = target: recombinant Ser 255 mutation FGF2 (UniProt P09038); assay: as above

| stoichiometry N [1] | stoichiometry N [2] | Substance |
| --- | --- | --- |
| 2 and 4 |  | recombinant wild-type FGF2 (from UniProt P09038 1-288) (natural protein) |
|  | 2 and 4 | recombinant Ser 255 mutation FGF2 (from UniProt P09038 1-288) (natural protein) |
